Laboratory results from the supplement of paper PMC10567573.

B1: MNAT1 (parent)
chain: SLREYNDFLEEVEEIVFNLTNNVD

Variants of: B1
Assay: protein stability index of a GFP-peptide fusion (GPS, HEK-293T) (PSI 1-6); higher = more stable
Conditions: c terminus: a fixed tail appended
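Also: lentivirally expressed fusions sorted by FACS into six bins by GFP to DsRed ratio, PSI derived from sequencing read proportions per bin multiplied by bin number.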

Q: Which protein stability index does the source give for SLREYKDFLEEVEEIVFNLTNNVD [N6K] here?
A: 3.15

Q: With SLREYRDFLEEVEEIVFNLTNNVD [N6R] as the variant, how does the protein stability index read?
A: 2.23

Q: Which protein stability index does the source give for SLREYVDFLEEVEEIVFNLTNNVD [N6V] here?
A: 1.68

Q: With SLREYADFLEEVEEIVFNLTNNVD [N6A] as the variant, how does the protein stability index read?
A: 2.82

Q: With SLREYYDFLEEVEEIVFNLTNNVD [N6Y] as the variant, how does the protein stability index read?
A: 1.87

Q: With SLREYFDFLEEVEEIVFNLTNNVD [N6F] as the variant, how does the protein stability index read?
A: 2.77

Q: Which protein stability index does the source give for SLREYNDFLEEVEEIVFNLTNNED [V23E] here?
A: 2.82

Q: Which protein stability index does the source give for SLREYNDFLEEVEEIVFNLTNNLD [V23L] here?
A: 1.64

Q: Which protein stability index does the source give for SLREYNDFLEEVEEIVFNLTNNWD [V23W] here?
A: 1.57

Q: Which protein stability index does the source give for SLREYNDFLEEVEEIVFNLTNNND [V23N] here?
A: 2.35

Q: With SLREYNDFLEEVEEIVFNLTNNCD [V23C] as the variant, how does the protein stability index read?
A: 2.47

Q: Which protein stability index does the source give for SLREYNDFLEEVEEIVFNLTNNSD [V23S] here?
A: 3.05

Q: With SLREYNDFLEEVEEIVFNLTNNQD [V23Q] as the variant, how does the protein stability index read?
A: 2.21

Q: For SLREYNDFLEEVEEIVFNLTNNAD [V23A], which protein stability index is on record?
A: 2.69

Q: With SLREYNDFLEEVEEIVFNLTNNFD [V23F] as the variant, how does the protein stability index read?
A: 2.71

Q: For SLRSYNDFLEEVEEIVFNLTNNVD [E4S], which protein stability index is on record?
A: 2.31

Q: With SLRKYNDFLEEVEEIVFNLTNNVD [E4K] as the variant, how does the protein stability index read?
A: 2.75

Q: For SLRAYNDFLEEVEEIVFNLTNNVD [E4A], which protein stability index is on record?
A: 1.88

Q: With SLRLYNDFLEEVEEIVFNLTNNVD [E4L] as the variant, how does the protein stability index read?
A: 2.5

Q: For SLRVYNDFLEEVEEIVFNLTNNVD [E4V], which protein stability index is on record?
A: 2.08

Q: With SLRCYNDFLEEVEEIVFNLTNNVD [E4C] as the variant, how does the protein stability index read?
A: 1.95

Q: With SLRFYNDFLEEVEEIVFNLTNNVD [E4F] as the variant, how does the protein stability index read?
A: 2.34

Q: For SLRHYNDFLEEVEEIVFNLTNNVD [E4H], which protein stability index is on record?
A: 2.66

Q: With SLRNYNDFLEEVEEIVFNLTNNVD [E4N] as the variant, how does the protein stability index read?
A: 2.04

Q: With SLRRYNDFLEEVEEIVFNLTNNVD [E4R] as the variant, how does the protein stability index read?
A: 1.85

Q: With SLRIYNDFLEEVEEIVFNLTNNVD [E4I] as the variant, how does the protein stability index read?
A: 1.69

Q: With SLREYNDFLEEVEEIVFRLTNNVD [N18R] as the variant, how does the protein stability index read?
A: 1.6

Q: With SLREYNDFLEEVEEIVFWLTNNVD [N18W] as the variant, how does the protein stability index read?
A: 2.52

Q: Which protein stability index does the source give for SLREYNDFLEEVEEIVFVLTNNVD [N18V] here?
A: 2.32

Q: Which protein stability index does the source give for SLREYNDFLEEVEEIVFPLTNNVD [N18P] here?
A: 2.71

Q: With SLREYNDFLEEVEEIVFQLTNNVD [N18Q] as the variant, how does the protein stability index read?
A: 1.73

Q: For SLREYNDFLEEVEEIVFCLTNNVD [N18C], which protein stability index is on record?
A: 1.71

Q: For SLREYNDFLEEVEEIVFMLTNNVD [N18M], which protein stability index is on record?
A: 1.84

Q: With SLREYNDFLEEVEYIVFNLTNNVD [E14Y] as the variant, how does the protein stability index read?
A: 2.6

Q: Which protein stability index does the source give for SLREYNDFLEEVEAIVFNLTNNVD [E14A] here?
A: 1.82

Q: Which protein stability index does the source give for SLREYNDFLEEVETIVFNLTNNVD [E14T] here?
A: 1.87

Q: Which protein stability index does the source give for SLREYNDFLEEVEMIVFNLTNNVD [E14M] here?
A: 2.22

Q: With SLREYNDFLEEVEPIVFNLTNNVD [E14P] as the variant, how does the protein stability index read?
A: 3.38

Q: For SLREYNDFLEEVERIVFNLTNNVD [E14R], which protein stability index is on record?
A: 2.15

Q: With SLREYNDFLEEVESIVFNLTNNVD [E14S] as the variant, how does the protein stability index read?
A: 2.26

Q: With SLREYNDFLEEVECIVFNLTNNVD [E14C] as the variant, how does the protein stability index read?
A: 2.24

Q: For SLREYNDFLEEVEFIVFNLTNNVD [E14F], which protein stability index is on record?
A: 2.82

Q: Which protein stability index does the source give for SLREYNDFLEEVEEIVFNLTNHVD [N22H] here?
A: 2.15

Q: Which protein stability index does the source give for SLREYNDFLEEVEEIVFNLTNMVD [N22M] here?
A: 1.44

Q: With SLREYNDFLEEVEEIVFNLTNQVD [N22Q] as the variant, how does the protein stability index read?
A: 1.84

Q: Which protein stability index does the source give for SLREYNDFLEEVEEIVFNLTNDVD [N22D] here?
A: 1.98

Q: For SLREYNDFLEEVEEIVFNLTNKVD [N22K], which protein stability index is on record?
A: 2.64

Q: For SLREYNDFLEEVEEIVFNLTNYVD [N22Y], which protein stability index is on record?
A: 1.38

Q: For SLREYNDFLEEVEEIVFNLTNRVD [N22R], which protein stability index is on record?
A: 2.09

Q: With SLREYNDFLEEVEEIVFNLTNGVD [N22G] as the variant, how does the protein stability index read?
A: 2.96

Q: For SLREYNDFLEEVEEIVFNLTNPVD [N22P], which protein stability index is on record?
A: 2.25

Q: With SLREYNDFLEEVEEIVFNLTNLVD [N22L] as the variant, how does the protein stability index read?
A: 1.16

Q: For SLREYNDFLEEVEEIVFNLTNNVR [D24R], which protein stability index is on record?
A: 1.26

Q: Which protein stability index does the source give for SLREYNDFLEEVEEIVFNLTNNVE [D24E] here?
A: 2.47

Q: For SLREYNDFLEEVEEIVFNLTNNVH [D24H], which protein stability index is on record?
A: 1.88

Q: With SLREYNDFLEEVEEIVFNLTNNVG [D24G] as the variant, how does the protein stability index read?
A: 2.61

Q: Which protein stability index does the source give for SLREYNDFLEEVEEIVFNLTNNVQ [D24Q] here?
A: 1.73

Q: For SLREYNDFLEEVEEIVFNLTNNVA [D24A], which protein stability index is on record?
A: 1.79

Q: Which protein stability index does the source give for SLREYNDFLEEVEEIVFNLTNNVI [D24I] here?
A: 1.85

Q: Which protein stability index does the source give for SLREYNDFLEEVEEIVFNYTNNVD [L19Y] here?
A: 3.06

Q: For SLREYNDFLEEVEEIVFNCTNNVD [L19C], which protein stability index is on record?
A: 3.34

Q: Which protein stability index does the source give for SLREYNDFLEEVEEIVFNRTNNVD [L19R] here?
A: 3.34

Q: With SLREYNDFLEEVEEIVFNNTNNVD [L19N] as the variant, how does the protein stability index read?
A: 3.76

Q: For SLREYNDFLEEVEEIVFNVTNNVD [L19V], which protein stability index is on record?
A: 2.97

Q: For SLREYNDFLEEVEEIVFNSTNNVD [L19S], which protein stability index is on record?
A: 4.18

Q: With SLREYNDFLEEVEEIVFNHTNNVD [L19H] as the variant, how does the protein stability index read?
A: 4.43

Q: For SLREYNDFLEEVEEIVKNLTNNVD [F17K], which protein stability index is on record?
A: 2.38

Q: With SLREYNDFLEEVEEIVLNLTNNVD [F17L] as the variant, how does the protein stability index read?
A: 2.19

Q: Which protein stability index does the source give for SLREYNDFLEEVEEIVCNLTNNVD [F17C] here?
A: 2.88

Q: Which protein stability index does the source give for SLREYNDFLEEVEEIVANLTNNVD [F17A] here?
A: 2.46

Q: Which protein stability index does the source give for SLREYNDFLEEVEEIVNNLTNNVD [F17N] here?
A: 2.16

Q: For SLREYNDFLEEVEEIVRNLTNNVD [F17R], which protein stability index is on record?
A: 2.2

Q: For SLREYNDFLEEVEEIVTNLTNNVD [F17T], which protein stability index is on record?
A: 3.16

Q: Which protein stability index does the source give for SLREYNDFLEEHEEIVFNLTNNVD [V12H] here?
A: 3.48

Q: With SLREYNDFLEEIEEIVFNLTNNVD [V12I] as the variant, how does the protein stability index read?
A: 2.13

Q: With SLREYNDFLEEREEIVFNLTNNVD [V12R] as the variant, how does the protein stability index read?
A: 4.19

Q: Which protein stability index does the source give for SLREYNDFLEETEEIVFNLTNNVD [V12T] here?
A: 3.48

Q: Which protein stability index does the source give for SLREYNDFLEENEEIVFNLTNNVD [V12N] here?
A: 4.83

Q: With SLREYNDFLEEPEEIVFNLTNNVD [V12P] as the variant, how does the protein stability index read?
A: 3.91

Q: For SLREYNDFLEEMEEIVFNLTNNVD [V12M], which protein stability index is on record?
A: 1.74

Q: For SLREYNDFLGEVEEIVFNLTNNVD [E10G], which protein stability index is on record?
A: 2.72

Q: With SLREYNDFLIEVEEIVFNLTNNVD [E10I] as the variant, how does the protein stability index read?
A: 1.3

Q: With SLREYNDFLFEVEEIVFNLTNNVD [E10F] as the variant, how does the protein stability index read?
A: 2.97

Q: For SLREYNDFLYEVEEIVFNLTNNVD [E10Y], which protein stability index is on record?
A: 2.15

Q: Which protein stability index does the source give for SLREYNDFLMEVEEIVFNLTNNVD [E10M] here?
A: 1.4

Q: Which protein stability index does the source give for SLKEYNDFLEEVEEIVFNLTNNVD [R3K] here?
A: 2.06

Q: Which protein stability index does the source give for SLWEYNDFLEEVEEIVFNLTNNVD [R3W] here?
A: 1.62

Q: Which protein stability index does the source give for SLYEYNDFLEEVEEIVFNLTNNVD [R3Y] here?
A: 1.86

Q: For SLTEYNDFLEEVEEIVFNLTNNVD [R3T], which protein stability index is on record?
A: 1.83

Q: Which protein stability index does the source give for SLAEYNDFLEEVEEIVFNLTNNVD [R3A] here?
A: 2.58

Q: For SLIEYNDFLEEVEEIVFNLTNNVD [R3I], which protein stability index is on record?
A: 1.69

Q: Which protein stability index does the source give for SLMEYNDFLEEVEEIVFNLTNNVD [R3M] here?
A: 1.91

Q: For SLFEYNDFLEEVEEIVFNLTNNVD [R3F], which protein stability index is on record?
A: 2.6

Q: With SLLEYNDFLEEVEEIVFNLTNNVD [R3L] as the variant, how does the protein stability index read?
A: 1.64
